Results published in publication PMC8913647.

Columns and labels:
[1] = target: major capsid protein VP1 of GII.4 norovirus Houston/TCH186/2002 (HOV), assembled as virus-like particle (human norovirus GII.4 (Houston/TCH186/2002, HOV)); test: crystal structure; GII.4 HOV VLP crystallised by hanging-drop vapor diffusion at room temperature; space group I222, 45 VP1 copies in the asymmetric unit, refined with NCS without imposing icosahedral symmetry; 3.0 Å
[2] = target: major capsid protein VP1 of GII.4 norovirus Houston/TCH186/2002 (HOV), assembled as virus-like particle (human norovirus GII.4 (Houston/TCH186/2002, HOV)); test: cryo-EM structure; GII.4 HOV VLPs (0.24 mg/ml) in PBS pH 6.0 on graphene oxide coated grids; single-particle reconstruction with icosahedral symmetry imposed (cryoSPARC); ~3.8 Å

Substance: major capsid protein VP1 of GII.4 norovirus Houston/TCH186/2002 (HOV), assembled as virus-like particle (natural protein)
- stoichiometry N [1]: 180
- stoichiometry N [2]: 180
